Laboratory results: the RNAGym collection of RNA variant scans (doi:10.1093/molbev/msab373)

B1: Azoarcus group I ribozyme (parent)
chain: GUGCCUUGCGCCGGGAAACCACGCAAGGGAUGGUGUCAAAUUCGGCGAAACCUAAGCGCCCGCCCGGGCGUAUGGCAACGCCGAGCCAAGCUUCGGCGCCUGCGCCGAUGAAGGUGUAGAGACUAGACGGCACCCACCUAAGGCAAACGCUAUGGUGAAGGCAUAGUCCAGGGAGUGGCGAAAGUCACACAAACCGG

Variants of: B1
Assay: reverse-splicing fitness (ratio to wild type); higher = more active; in vitro selection; Mg2+ level not given
Summary of the method: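 An in vitro group I ribozyme library with randomized positions was T7-transcribed and gel-purified. In triplicate, 10 pmol RNA in EPPS pH 7.5 was reacted with 50 pmoles of a 30-nt RNA substrate for 1 h at 37 °C across several added MgCl2 levels (1–48 mM), then stopped with EDTA. Products were reverse transcribed from a substrate-complementary primer, PCR-amplified and sequenced (HiSeq 4000). Fitness is a variant's read proportion after selection over that before, normalised to wild type.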

Question: For A111U A145G C169G U176C, which reverse-splicing fitness is on record?
Answer: The reverse-splicing fitness was 0.0358.

Question: With A120C A145U C150U C169U U176A as the variant, how does the reverse-splicing fitness read?
Answer: The reverse-splicing fitness was 0.131.

Question: With A120C A145U C150U C169U U176C as the variant, how does the reverse-splicing fitness read?
Answer: The reverse-splicing fitness was 0.16.

Question: For A120C A145U C150U C169U U176G, which reverse-splicing fitness is on record?
Answer: The reverse-splicing fitness was 0.0113.

Question: For A120C A145C C150A C169U, which reverse-splicing fitness is on record?
Answer: The reverse-splicing fitness was 0.0518.

Question: For A120C A145C C150A C169A, which reverse-splicing fitness is on record?
Answer: The reverse-splicing fitness was 0.00701.

Question: For A120C A145C C150A C169G, which reverse-splicing fitness is on record?
Answer: Its reverse-splicing fitness is 0.00626.

Question: With A111U U176A as the variant, how does the reverse-splicing fitness read?
Answer: The reverse-splicing fitness was 0.823.

Question: For A111U U176C, which reverse-splicing fitness is on record?
Answer: Its reverse-splicing fitness is 0.793.

Question: Which reverse-splicing fitness does the source give for A111U U176G here?
Answer: Its reverse-splicing fitness is 0.288.

Question: Which reverse-splicing fitness does the source give for A120C A145G C150G C169G U176G here?
Answer: Its reverse-splicing fitness is 0.00533.

Question: For A120C A145G C150G C169G U176A, which reverse-splicing fitness is on record?
Answer: The reverse-splicing fitness was 0.00996.

Question: For A120C A145G C150G C169G U176C, which reverse-splicing fitness is on record?
Answer: The reverse-splicing fitness was 0.0135.

Question: With A120C A145G C169G U176G as the variant, how does the reverse-splicing fitness read?
Answer: Its reverse-splicing fitness is 0.00382.

Question: For A120C A145G C169G U176A, which reverse-splicing fitness is on record?
Answer: The reverse-splicing fitness was 0.0155.

Question: Which reverse-splicing fitness does the source give for A120C A145G C169G U176C here?
Answer: Its reverse-splicing fitness is 0.022.

Question: With A120C A145U C150A C169G as the variant, how does the reverse-splicing fitness read?
Answer: The reverse-splicing fitness was 0.00666.

Question: For A120C A145U C150A C169A, which reverse-splicing fitness is on record?
Answer: The reverse-splicing fitness was 0.00801.

Question: With A120C A145U C150A C169U as the variant, how does the reverse-splicing fitness read?
Answer: Its reverse-splicing fitness is 0.0832.

Question: Which reverse-splicing fitness does the source give for A111U A145G C169U U176A here?
Answer: The reverse-splicing fitness was 0.0265.

Question: With A111U A145G C169U U176C as the variant, how does the reverse-splicing fitness read?
Answer: Its reverse-splicing fitness is 0.0327.

Question: Which reverse-splicing fitness does the source give for A111U A145G C169U U176G here?
Answer: The reverse-splicing fitness was 0.00581.

Question: For A120C A145U C150G C169U U176A, which reverse-splicing fitness is on record?
Answer: The reverse-splicing fitness was 0.0184.

Question: For A120C A145U C150G C169U U176C, which reverse-splicing fitness is on record?
Answer: Its reverse-splicing fitness is 0.0535.

Question: Which reverse-splicing fitness does the source give for A120C A145U C150G C169U U176G here?
Answer: The reverse-splicing fitness was 0.00515.

Question: Which reverse-splicing fitness does the source give for A111U C150A C169A U176C here?
Answer: The reverse-splicing fitness was 0.0168.

Question: Which reverse-splicing fitness does the source give for A111U C150A C169A U176A here?
Answer: The reverse-splicing fitness was 0.0182.

Question: Which reverse-splicing fitness does the source give for A111U C150A C169A U176G here?
Answer: Its reverse-splicing fitness is 0.00646.

Question: With A120C A145C C150A U176G as the variant, how does the reverse-splicing fitness read?
Answer: Its reverse-splicing fitness is 0.0481.

Question: Which reverse-splicing fitness does the source give for A120C A145C C150A U176C here?
Answer: Its reverse-splicing fitness is 0.102.

Question: For A120C A145C C150A U176A, which reverse-splicing fitness is on record?
Answer: The reverse-splicing fitness was 0.112.

Question: For A120C A145C C169U U176G, which reverse-splicing fitness is on record?
Answer: The reverse-splicing fitness was 0.0155.

Question: With A120C A145C C169U U176C as the variant, how does the reverse-splicing fitness read?
Answer: Its reverse-splicing fitness is 0.177.

Question: Which reverse-splicing fitness does the source give for A120C A145C C169U U176A here?
Answer: The reverse-splicing fitness was 0.143.

Question: With A120C A145G C150U C169G as the variant, how does the reverse-splicing fitness read?
Answer: Its reverse-splicing fitness is 0.0232.

Question: Which reverse-splicing fitness does the source give for A120C A145G C150U C169U here?
Answer: The reverse-splicing fitness was 0.432.

Question: For A120C A145G C150U C169A, which reverse-splicing fitness is on record?
Answer: The reverse-splicing fitness was 0.0324.

Question: For A111U A145U C169G U176A, which reverse-splicing fitness is on record?
Answer: Its reverse-splicing fitness is 0.016.

Question: With A111U A145U C169G U176G as the variant, how does the reverse-splicing fitness read?
Answer: The reverse-splicing fitness was 0.00562.

Question: Which reverse-splicing fitness does the source give for A111U A145U C169G U176C here?
Answer: Its reverse-splicing fitness is 0.0214.

Question: For A111U A145U C150G C169U, which reverse-splicing fitness is on record?
Answer: The reverse-splicing fitness was 0.0168.

Question: For A111U A145U C150G C169A, which reverse-splicing fitness is on record?
Answer: The reverse-splicing fitness was 0.0102.

Question: For A111U A145U C150G C169G, which reverse-splicing fitness is on record?
Answer: The reverse-splicing fitness was 0.011.

Question: With A120C A145C C150U C169A U176G as the variant, how does the reverse-splicing fitness read?
Answer: The reverse-splicing fitness was 0.00465.

Question: With A120C A145C C150U C169A U176C as the variant, how does the reverse-splicing fitness read?
Answer: Its reverse-splicing fitness is 0.008.

Question: For A120C A145C C150U C169A U176A, which reverse-splicing fitness is on record?
Answer: The reverse-splicing fitness was 0.0105.

Question: Which reverse-splicing fitness does the source give for A120C A145G C150G C169G here?
Answer: Its reverse-splicing fitness is 0.00987.

Question: Which reverse-splicing fitness does the source give for A120C A145G C150G C169A here?
Answer: The reverse-splicing fitness was 0.0119.

Question: Which reverse-splicing fitness does the source give for A120C A145G C150G C169U here?
Answer: The reverse-splicing fitness was 0.108.

Question: For A120C A145C C150U C169U U176A, which reverse-splicing fitness is on record?
Answer: The reverse-splicing fitness was 0.0792.

Question: With A120C A145C C150U C169U U176C as the variant, how does the reverse-splicing fitness read?
Answer: The reverse-splicing fitness was 0.0863.

Question: Which reverse-splicing fitness does the source give for A120C A145C C150U C169U U176G here?
Answer: The reverse-splicing fitness was 0.00874.

Question: Which reverse-splicing fitness does the source give for A111U C150G C169U here?
Answer: Its reverse-splicing fitness is 0.0141.

Question: For A111U C150G C169G, which reverse-splicing fitness is on record?
Answer: Its reverse-splicing fitness is 0.00998.

Question: For A111U C150G C169A, which reverse-splicing fitness is on record?
Answer: Its reverse-splicing fitness is 0.00956.

Question: For A120C A145C U176G, which reverse-splicing fitness is on record?
Answer: Its reverse-splicing fitness is 0.266.

Question: With A120C A145C U176A as the variant, how does the reverse-splicing fitness read?
Answer: Its reverse-splicing fitness is 0.693.

Question: For A120C A145C U176C, which reverse-splicing fitness is on record?
Answer: The reverse-splicing fitness was 0.574.

Question: For A120C A145G C150G C169A U176A, which reverse-splicing fitness is on record?
Answer: Its reverse-splicing fitness is 0.0131.

Question: With A120C A145G C150G C169A U176G as the variant, how does the reverse-splicing fitness read?
Answer: The reverse-splicing fitness was 0.00789.

Question: Which reverse-splicing fitness does the source give for A120C A145G C150G C169A U176C here?
Answer: The reverse-splicing fitness was 0.0132.

Question: With A120C A145U C150A U176A as the variant, how does the reverse-splicing fitness read?
Answer: Its reverse-splicing fitness is 0.191.

Question: For A120C A145U C150A U176C, which reverse-splicing fitness is on record?
Answer: The reverse-splicing fitness was 0.179.

Question: Which reverse-splicing fitness does the source give for A120C A145U C150A U176G here?
Answer: Its reverse-splicing fitness is 0.0668.

Question: For A120C A145C C150U U176C, which reverse-splicing fitness is on record?
Answer: Its reverse-splicing fitness is 0.317.

Question: For A120C A145C C150U U176G, which reverse-splicing fitness is on record?
Answer: Its reverse-splicing fitness is 0.137.

Question: For A120C A145C C150U U176A, which reverse-splicing fitness is on record?
Answer: The reverse-splicing fitness was 0.398.

Question: For A120C A145C C150A C169A U176A, which reverse-splicing fitness is on record?
Answer: Its reverse-splicing fitness is 0.00897.

Question: For A120C A145C C150A C169A U176C, which reverse-splicing fitness is on record?
Answer: Its reverse-splicing fitness is 0.00472.

Question: Which reverse-splicing fitness does the source give for A120C A145C C150A C169A U176G here?
Answer: The reverse-splicing fitness was 0.00372.

Question: Which reverse-splicing fitness does the source give for A120C A145G C150U C169A U176G here?
Answer: The reverse-splicing fitness was 0.00444.

Question: With A120C A145G C150U C169A U176C as the variant, how does the reverse-splicing fitness read?
Answer: Its reverse-splicing fitness is 0.0196.

Question: Which reverse-splicing fitness does the source give for A120C A145G C150U C169A U176A here?
Answer: Its reverse-splicing fitness is 0.0167.

Question: For A111U A145G C169U, which reverse-splicing fitness is on record?
Answer: The reverse-splicing fitness was 0.111.

Question: Which reverse-splicing fitness does the source give for A111U A145G C169G here?
Answer: Its reverse-splicing fitness is 0.0699.

Question: Which reverse-splicing fitness does the source give for A111U A145G C169A here?
Answer: The reverse-splicing fitness was 0.0306.

Question: For A120C A145U C169G U176A, which reverse-splicing fitness is on record?
Answer: Its reverse-splicing fitness is 0.00826.

Question: For A120C A145U C169G U176C, which reverse-splicing fitness is on record?
Answer: The reverse-splicing fitness was 0.0112.

Question: Which reverse-splicing fitness does the source give for A120C A145G C169A U176G here?
Answer: The reverse-splicing fitness was 0.00471.

Question: With A120C A145G C169A U176A as the variant, how does the reverse-splicing fitness read?
Answer: The reverse-splicing fitness was 0.0215.

Question: Which reverse-splicing fitness does the source give for A120C A145G C169A U176C here?
Answer: The reverse-splicing fitness was 0.024.

Question: Which reverse-splicing fitness does the source give for A120C A145U C150U C169G U176C here?
Answer: The reverse-splicing fitness was 0.0117.

Question: Which reverse-splicing fitness does the source give for A120C A145U C150U C169G U176G here?
Answer: The reverse-splicing fitness was 0.00463.

Question: Which reverse-splicing fitness does the source give for A120C A145U C150U C169G U176A here?
Answer: Its reverse-splicing fitness is 0.0111.
